We go through 10 molecules from EP4506361A1 (Biotheus Inc., dated 2025).

For test [1], the target named is T1, rhesus c-Met on HEK293T cells overexpressing rhesus c-Met (HEK293-Rhe c-Met) (rhesus monkey, UniProt F7H1K4 25-1381).
T1 construct: also called rhesus monkey c-Met
Put plainly: flow cytometry on HEK293-Rhe c-Met cells. In general terms: A flow cytometer gives signals particle by particle.

Test [2] has as its target T2, human c-Met protein (purchased from AcroBiosystems) (human, UniProt P08581 25-932).
T2 construct: Soluble antigen of the ForteBio assay; also called human c-Met antigen
Put plainly: BLI (ForteBio), antibody on AHQ sensor, 100 nM human c-Met antigen, 1:1 model. A general note: In BLI a coated tip is dipped into the sample, and binding shifts an interference pattern.

For test [3], the target named is T3, human c-Met on HEK293T cells overexpressing human c-Met (HEK293-Hu c-Met) (human, UniProt P08581 25-1390).
T3 construct: whole, on cells; also called human c-Met overexpression cells
T3 sequence (P08581 25-1390): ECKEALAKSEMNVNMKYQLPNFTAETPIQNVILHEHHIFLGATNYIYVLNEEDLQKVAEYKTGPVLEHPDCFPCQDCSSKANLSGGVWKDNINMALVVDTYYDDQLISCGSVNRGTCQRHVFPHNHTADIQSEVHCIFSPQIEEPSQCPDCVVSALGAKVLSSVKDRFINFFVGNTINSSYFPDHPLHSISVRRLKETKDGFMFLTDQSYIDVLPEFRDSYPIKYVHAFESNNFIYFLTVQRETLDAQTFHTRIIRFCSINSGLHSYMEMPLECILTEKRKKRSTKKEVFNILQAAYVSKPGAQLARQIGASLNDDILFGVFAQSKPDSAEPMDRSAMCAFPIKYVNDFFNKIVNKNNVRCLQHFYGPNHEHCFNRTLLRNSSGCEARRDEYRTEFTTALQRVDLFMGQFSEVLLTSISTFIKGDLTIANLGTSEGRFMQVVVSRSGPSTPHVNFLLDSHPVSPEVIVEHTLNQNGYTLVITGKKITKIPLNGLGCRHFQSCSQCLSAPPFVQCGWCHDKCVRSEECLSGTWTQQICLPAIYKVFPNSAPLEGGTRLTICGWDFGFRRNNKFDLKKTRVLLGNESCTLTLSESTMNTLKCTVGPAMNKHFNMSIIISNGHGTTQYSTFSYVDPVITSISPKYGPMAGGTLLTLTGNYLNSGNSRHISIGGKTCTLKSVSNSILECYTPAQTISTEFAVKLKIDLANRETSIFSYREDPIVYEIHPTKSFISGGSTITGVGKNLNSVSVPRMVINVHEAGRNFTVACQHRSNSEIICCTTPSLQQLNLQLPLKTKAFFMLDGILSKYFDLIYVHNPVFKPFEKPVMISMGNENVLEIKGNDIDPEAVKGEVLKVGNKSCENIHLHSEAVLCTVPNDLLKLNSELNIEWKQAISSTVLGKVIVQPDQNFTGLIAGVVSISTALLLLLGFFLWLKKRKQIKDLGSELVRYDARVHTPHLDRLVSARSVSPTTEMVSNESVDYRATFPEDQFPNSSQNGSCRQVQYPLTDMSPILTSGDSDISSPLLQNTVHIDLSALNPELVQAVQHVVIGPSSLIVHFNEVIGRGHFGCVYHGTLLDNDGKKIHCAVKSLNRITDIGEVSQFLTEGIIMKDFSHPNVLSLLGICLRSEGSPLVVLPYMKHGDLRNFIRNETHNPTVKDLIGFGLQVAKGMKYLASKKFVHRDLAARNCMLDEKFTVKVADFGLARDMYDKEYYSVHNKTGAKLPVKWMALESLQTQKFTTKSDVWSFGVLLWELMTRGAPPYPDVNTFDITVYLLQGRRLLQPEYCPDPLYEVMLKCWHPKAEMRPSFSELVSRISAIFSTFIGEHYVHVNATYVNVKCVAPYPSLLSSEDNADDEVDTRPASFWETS
The experiment in a line: flow cytometry on HEK293-Hu c-Met cells.

Test [4] deals with cynomolgus monkey c-Met protein (purchased from AcroBiosystems) (cynomolgus monkey, UniProt A0A2K5UM36 25-932). Put plainly: BLI (ForteBio), antibody on AHQ sensor, cynomolgus monkey c-Met protein in solution.
Sequence of cynomolgus monkey c-Met protein (purchased from AcroBiosystems) (A0A2K5UM36 entry or part of it limits assumed, form in doubt): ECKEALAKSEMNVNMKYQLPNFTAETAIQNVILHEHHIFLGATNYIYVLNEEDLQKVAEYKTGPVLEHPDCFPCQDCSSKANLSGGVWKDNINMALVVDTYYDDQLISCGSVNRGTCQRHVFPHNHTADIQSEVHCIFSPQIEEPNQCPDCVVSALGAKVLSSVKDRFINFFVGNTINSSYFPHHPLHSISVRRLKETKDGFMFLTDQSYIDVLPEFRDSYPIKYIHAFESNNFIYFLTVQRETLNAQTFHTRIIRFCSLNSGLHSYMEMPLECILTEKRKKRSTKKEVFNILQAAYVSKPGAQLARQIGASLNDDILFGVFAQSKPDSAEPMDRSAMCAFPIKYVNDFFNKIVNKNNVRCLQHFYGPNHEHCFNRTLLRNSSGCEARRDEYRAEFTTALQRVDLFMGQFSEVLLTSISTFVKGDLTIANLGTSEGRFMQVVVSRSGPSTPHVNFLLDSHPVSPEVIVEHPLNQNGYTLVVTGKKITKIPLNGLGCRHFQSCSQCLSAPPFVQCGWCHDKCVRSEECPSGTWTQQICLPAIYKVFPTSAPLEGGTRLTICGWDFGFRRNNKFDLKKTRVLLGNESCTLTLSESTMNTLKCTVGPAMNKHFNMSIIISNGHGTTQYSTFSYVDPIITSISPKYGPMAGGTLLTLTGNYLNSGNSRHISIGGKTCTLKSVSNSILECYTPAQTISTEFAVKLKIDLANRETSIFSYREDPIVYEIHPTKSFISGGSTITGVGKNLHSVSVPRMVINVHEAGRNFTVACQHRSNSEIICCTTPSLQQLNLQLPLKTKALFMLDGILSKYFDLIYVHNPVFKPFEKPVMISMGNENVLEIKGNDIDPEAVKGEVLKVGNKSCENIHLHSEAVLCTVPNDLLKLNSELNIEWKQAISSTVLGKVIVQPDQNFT
In test [5] the target is T1, rhesus c-Met on HEK293T cells …. The experiment in a line: flow cytometry on HEK293-Rhe c-Met cells, first EC50 column.
For test [6], the target named is T3, human c-Met on HEK293T cells …. Put plainly: flow cytometry on HEK293-Hu c-Met cells, first EC50 column.

T1 sequence (F7H1K4 entry or part of it limits assumed, form in doubt): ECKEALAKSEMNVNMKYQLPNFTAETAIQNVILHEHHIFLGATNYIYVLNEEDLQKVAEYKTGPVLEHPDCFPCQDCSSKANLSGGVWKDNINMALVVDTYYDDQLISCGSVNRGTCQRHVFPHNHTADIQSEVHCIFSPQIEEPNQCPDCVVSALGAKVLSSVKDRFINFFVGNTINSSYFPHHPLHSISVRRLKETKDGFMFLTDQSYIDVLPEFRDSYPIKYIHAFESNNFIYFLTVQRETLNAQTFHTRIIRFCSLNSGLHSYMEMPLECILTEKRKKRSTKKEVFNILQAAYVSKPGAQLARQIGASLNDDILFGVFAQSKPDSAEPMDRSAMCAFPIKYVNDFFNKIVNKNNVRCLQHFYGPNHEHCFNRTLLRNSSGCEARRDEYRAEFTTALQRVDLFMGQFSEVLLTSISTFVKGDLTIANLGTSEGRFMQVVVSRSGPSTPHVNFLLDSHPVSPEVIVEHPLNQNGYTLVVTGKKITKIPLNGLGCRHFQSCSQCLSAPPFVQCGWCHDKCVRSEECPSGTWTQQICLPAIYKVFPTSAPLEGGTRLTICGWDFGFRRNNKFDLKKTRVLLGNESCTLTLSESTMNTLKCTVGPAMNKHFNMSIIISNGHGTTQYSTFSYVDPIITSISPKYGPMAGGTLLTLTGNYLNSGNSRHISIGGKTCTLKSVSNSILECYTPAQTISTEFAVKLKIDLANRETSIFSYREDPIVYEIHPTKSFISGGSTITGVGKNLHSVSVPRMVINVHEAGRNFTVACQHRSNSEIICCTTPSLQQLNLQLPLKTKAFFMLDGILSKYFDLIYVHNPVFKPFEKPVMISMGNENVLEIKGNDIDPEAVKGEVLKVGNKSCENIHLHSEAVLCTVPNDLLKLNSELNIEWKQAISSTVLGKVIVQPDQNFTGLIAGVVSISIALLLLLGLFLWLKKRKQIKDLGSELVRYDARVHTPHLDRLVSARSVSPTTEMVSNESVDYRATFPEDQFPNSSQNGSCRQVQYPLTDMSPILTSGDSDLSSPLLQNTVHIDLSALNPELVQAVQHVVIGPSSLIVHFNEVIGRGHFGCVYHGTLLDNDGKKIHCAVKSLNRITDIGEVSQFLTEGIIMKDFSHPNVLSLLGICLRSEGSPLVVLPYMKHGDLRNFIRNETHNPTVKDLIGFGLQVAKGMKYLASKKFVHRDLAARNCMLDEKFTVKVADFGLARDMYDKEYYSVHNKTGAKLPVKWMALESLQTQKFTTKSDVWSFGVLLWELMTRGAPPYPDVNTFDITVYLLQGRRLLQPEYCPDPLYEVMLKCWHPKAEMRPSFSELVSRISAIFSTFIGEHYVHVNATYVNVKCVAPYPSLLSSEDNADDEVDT
T2 sequence (P08581 25-932 limits assumed): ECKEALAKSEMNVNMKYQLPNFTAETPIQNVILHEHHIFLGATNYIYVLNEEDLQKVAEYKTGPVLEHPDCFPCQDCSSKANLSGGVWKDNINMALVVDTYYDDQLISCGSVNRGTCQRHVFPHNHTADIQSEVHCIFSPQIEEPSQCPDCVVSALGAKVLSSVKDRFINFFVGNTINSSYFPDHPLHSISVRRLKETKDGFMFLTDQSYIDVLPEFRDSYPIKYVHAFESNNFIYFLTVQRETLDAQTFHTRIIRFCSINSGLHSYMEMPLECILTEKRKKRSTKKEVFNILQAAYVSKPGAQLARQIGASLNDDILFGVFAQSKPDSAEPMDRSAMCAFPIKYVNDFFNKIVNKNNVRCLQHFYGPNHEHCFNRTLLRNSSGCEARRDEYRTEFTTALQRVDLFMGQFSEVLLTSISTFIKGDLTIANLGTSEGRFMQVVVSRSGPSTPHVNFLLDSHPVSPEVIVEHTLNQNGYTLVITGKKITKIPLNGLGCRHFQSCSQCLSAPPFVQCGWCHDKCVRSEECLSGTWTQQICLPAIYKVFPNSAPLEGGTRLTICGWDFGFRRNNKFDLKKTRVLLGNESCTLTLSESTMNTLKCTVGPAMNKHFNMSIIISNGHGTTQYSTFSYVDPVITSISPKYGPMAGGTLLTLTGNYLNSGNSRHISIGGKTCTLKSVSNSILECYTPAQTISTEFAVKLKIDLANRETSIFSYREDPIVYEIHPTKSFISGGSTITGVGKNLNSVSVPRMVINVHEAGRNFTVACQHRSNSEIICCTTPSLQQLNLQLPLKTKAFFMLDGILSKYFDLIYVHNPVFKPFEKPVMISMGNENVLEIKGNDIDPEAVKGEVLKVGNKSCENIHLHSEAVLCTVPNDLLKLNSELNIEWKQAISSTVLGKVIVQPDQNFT

B1: anti-c-Met single-arm antibody 221 (antibody, human IgG1, kappa, L234A L235A)
heavy: not shown
light: EIVLTQSPGTLSLSPGERATLSCRASQSVSSSYLAWYQQKPGQAPRLLIYGPSSRATGIPDRFSGSGSGTDFTLTISSLQPADFASYYCQQSYITPYTFGQGTKVEIKRTVAAPSVFIFPPSDEQLKSGTASVVCLLNNFYPREAKVQWKVDNALQSGNSQESVTEQDSKDSTYSLSSTLTLSKADYEKHKVYACEVTHQGLSSPVTKSFNRGEC
chain: not shown
For B1, the concentration giving a half-maximal response (EC50) – broadly, the concentration giving half of the maximal effect – in test [1] stood at 1.48 nM. Also, in test [2], the affinity, expressed as Kd, was 2.01 nM; the koff (as a rule, the first-order rate constant of dissociation) stood at 0.00037 s⁻¹; the kon (in general, a measure of how fast the partners come together) came out at 184000 M⁻¹ s⁻¹. Further, in test [3], the EC50 amounted to 1.73 nM. For the same molecule, in test [4], the Kd (in general, a measure of binding affinity in units of concentration) was 63.8 nM; the koff is 0.00192 s⁻¹; the kon was found to be 30100 M⁻¹ s⁻¹.

B2: Amivantamab single-arm antibody (antibody, human IgG1, kappa, L234A L235A)
heavy: not shown
light: DIQMTQSPSSVSASVGDRVTITCRASQGISNWLAWFQHKPGKAPKLLIYAASSLLSGVPSRFSGSGSGTDFTLTISSLQPEDFATYYCQQANSFPITFGQGTRLEIKRTVAAPSVFIFPPSDEQLKSGTASVVCLLNNFYPREAKVQWKVDNALQSGNSQESVTEQDSKDSTYSLSSTLTLSKADYEKHKVYACEVTHQGLSSPVTKSFNRGEC
chain: not shown
notes: also called control antibody Amivantamab
For the molecule B2, the EC50 in test [5] stood at 0.241 nM; in test [6] it was 0.323 nM; in test [1] it was 0.2 nM; in test [3], 0.396 nM.

B3: anti-c-Met single-arm antibody 223 (antibody, human IgG1, kappa, L234A L235A)
heavy: not shown
light: DIQLTQSPSSLSASVGDRVTITCRASQSIITYLNWYQQKPGKAPKLLIYAASSLQSGVPSRFSGSGSGTDFTLNISSLQPEDFATYYCQQANSLPYTFGQGTKVEIKRTVAAPSVFIFPPSDEQLKSGTASVVCLLNNFYPREAKVQWKVDNALQSGNSQESVTEQDSKDSTYSLSSTLTLSKADYEKHKVYACEVTHQGLSSPVTKSFNRGEC
chain: not shown
On to B3, for which, in test [1], the half-maximal effective concentration (EC50) was 1.06 nM. Further, in test [2], the affinity, expressed as Kd, was 9.76 nM; the koff worked out at 0.00163 s⁻¹; the kon worked out at 167000 M⁻¹ s⁻¹. In test [3], this molecule returned an EC50 of 0.765 nM. In test [4], the Kd turned out to be 16.2 nM, the koff stood at 0.00109 s⁻¹ and the kon is 67300 M⁻¹ s⁻¹.

B4: LY2875358 single-arm antibody (antibody, human IgG1, kappa, L234A L235A)
heavy: not shown
light: DIQMTQSPSSLSASVGDRVTITCSVSSSVSSIYLHWYQQKPGKAPKLLIYSTSNLASGVPSRFSGSGSGTDFTLTISSLQPEDFATYYCQVYSGYPLTFGGGTKVEIKRTVAAPSVFIFPPSDEQLKSGTASVVCLLNNFYPREAKVQWKVDNALQSGNSQESVTEQDSKDSTYSLSSTLTLSKADYEKHKVYACEVTHQGLSSPVTKSFNRGEC
chain: not shown
notes: also called control antibody LY2875358
For B4, the EC50 in test [5] came out at 0.868 nM; in test [6], 1.25 nM; in test [1] it was 0.749 nM; in test [3] it was 1.39 nM.

B5: Onartuzumab (antibody, human IgG1, kappa, L234A L235A)
heavy: not shown
light: DIQMTQSPSSLSASVGDRVTITCKSSQSLLYTSSQKNYLAWYQQKPGKAPKLLIYWASTRESGVPSRFSGSGSGTDFTLTISSLQPEDFATYYCQQYYAYPWTFGQGTKVEIKRTVAAPSVFIFPPSDEQLKSGTASVVCLLNNFYPREAKVQWKVDNALQSGNSQESVTEQDSKDSTYSLSSTLTLSKADYEKHKVYACEVTHQGLSSPVTKSFNRGEC
chain: not shown
notes: Control antibody, made from three plasmids in Expi-CHO cells; also called control antibody onartuzumab; antibody onartuzumab
As for B5, the EC50 came to 0.97 nM in test [5], 1.03 nM in test [6], 1.24 nM in test [1] and 0.54 nM in test [3].

B6: anti-c-Met single-arm antibody 23 (antibody, human IgG1, kappa, L234A L235A)
heavy: not shown
light: DIVMTQSPSSLSASVGDRVTITCRASQSFSDYLNWYRQKPGKAPKLLLFAASSLQSGVPSRFSGSGSGTDFTLTISSLQPEDFATYYCQQSYSPPYTFGQGTKLEIKRTVAAPSVFIFPPSDEQLKSGTASVVCLLNNFYPREAKVQWKVDNALQSGNSQESVTEQDSKDSTYSLSSTLTLSKADYEKHKVYACEVTHQGLSSPVTKSFNRGEC
chain: not shown
The molecule B6 displayed an EC50 in test [5] of 0.746 nM. For the same molecule, it took 0.821 nM to reach a half-maximal effect in test [6] (EC50). In test [2], this molecule registered a Kd of 0.596 nM, a koff of 9.5e-05 s⁻¹ and a kon of 160000 M⁻¹ s⁻¹. In test [4], this molecule came in with a Kd of 26.5 nM, a koff of 0.00151 s⁻¹ and a kon of 56900 M⁻¹ s⁻¹.

B7: anti-c-Met single-arm antibody 22 (antibody, human IgG1, kappa, L234A L235A)
heavy: not shown
light: DIVMTQSPSSVSASVGDRVTITCRASQGISSWLAWYQQKPGKAPKLLIYAASSLQSGVPSKFSGSGSGTEFTLTISSLQPEDFATYFCQQAYGFPLTFGGGTKVEIKRTVAAPSVFIFPPSDEQLKSGTASVVCLLNNFYPREAKVQWKVDNALQSGNSQESVTEQDSKDSTYSLSSTLTLSKADYEKHKVYACEVTHQGLSSPVTKSFNRGEC
chain: not shown
Turning to B7, a half-maximal effect in test [5] (EC50) was put at 0.726 nM. Also, a half-maximal response in test [6] (EC50) required 0.947 nM. In addition, in test [2], the dissociation constant (Kd) stood at 4.29 nM, the dissociation rate constant (koff) worked out at 0.000548 s⁻¹ and the kon worked out at 128000 M⁻¹ s⁻¹. Besides, in test [4], the Kd was 19 nM, the koff came out at 0.00259 s⁻¹ and the kon is 136000 M⁻¹ s⁻¹.

B8: anti-c-Met single-arm antibody 136 (antibody, human IgG1, kappa, L234A L235A)
heavy: not shown
light: DIVMTQSPSSVSASVGDRVTITCRASQGISSWLAWYQQKPGKAPKLLIYAVSSLQSGVPSRFSGSGSGTDFTLTISSLQPEDFATYFCQQANSFPLTFGGGTKVEIKRTVAAPSVFIFPPSDEQLKSGTASVVCLLNNFYPREAKVQWKVDNALQSGNSQESVTEQDSKDSTYSLSSTLTLSKADYEKHKVYACEVTHQGLSSPVTKSFNRGEC
chain: not shown
Turning to B8, it took 0.306 nM to reach a half-maximal effect in test [5] (EC50). The same molecule came in with an EC50 in test [6] of 0.452 nM. In test [2], this molecule came in with a Kd of 0.0293 nM, a koff of 6.71e-06 s⁻¹ and a kon of 229000 M⁻¹ s⁻¹. In test [4], this molecule returned a dissociation constant Kd of 1.16 nM, a koff of 0.000426 s⁻¹ and a kon of 369000 M⁻¹ s⁻¹.

B9: anti-c-Met single-arm antibody 187 (antibody, human IgG1, kappa, L234A L235A)
heavy: not shown
light: DIVMTQSPSSVSASVGDRVTITCRASQGISSWLAWYQQKPGKAPNLLIYAASNLPSGVPSRFSGSGSGTVFTLTISSLQPEDFATYYCQQSNSFPLTFGGGTKVEIKRTVAAPSVFIFPPSDEQLKSGTASVVCLLNNFYPREAKVQWKVDNALQSGNSQESVTEQDSKDSTYSLSSTLTLSKADYEKHKVYACEVTHQGLSSPVTKSFNRGEC
chain: not shown
For B9, a half-maximal effect in test [1] (EC50) was put at 0.592 nM. In test [2], this molecule came in with a Kd of 1.68 nM, a koff of 0.000369 s⁻¹ and a kon of 220000 M⁻¹ s⁻¹. This molecule had a half-maximal effective concentration (EC50) in test [3] of 0.732 nM. Further, in test [4], the Kd amounted to 2.92 nM, the koff worked out at 0.000947 s⁻¹ and the kon was found to be 324000 M⁻¹ s⁻¹.

B10: anti-c-Met single-arm antibody 74 (antibody, human IgG1, kappa, L234A L235A)
heavy: not shown
light: DIVMTQSPSSVSASVGDRVTITCRASQGINSWLAWYQQKPGKAPNLLIYAASSLQSGVPSRFSGRGSGTDFSLTISSLHPEDFATYYCQQAKGFPLTFGGGTKVEIKRTVAAPSVFIFPPSDEQLKSGTASVVCLLNNFYPREAKVQWKVDNALQSGNSQESVTEQDSKDSTYSLSSTLTLSKADYEKHKVYACEVTHQGLSSPVTKSFNRGEC
chain: not shown
Molecule B10 came in with an EC50 in test [5] of 1.46 nM. Besides, it took 1.9 nM to reach a half-maximal effect in test [6] (EC50). Besides, in test [2], the affinity, expressed as Kd, was 6.01 nM; the koff is 0.00108 s⁻¹; the association rate constant (kon) is 179000 M⁻¹ s⁻¹. Besides, in test [4], the Kd was determined as 9.7 nM, the koff came to 0.0026 s⁻¹ and the kon was found to be 269000 M⁻¹ s⁻¹.
